{"source": "patent US20240400708A1", "binders": {"B1": {"name": "feline IgG1a S252E (antibody, part only; not given: variable domains, not shown: another chain or arm of the molecule)", "constant": "ASTTAPSVFPLAPSCGTTSGATVALACLVLGYFPEPVTVSWNSGALTSGVHTFPAVLQASGLYSLSSMVTVPSSRWLSDTFTCNVAHPPSNTKVDKTVRKTDHPPGPKPCDCPKCPPPEMLGGPSIFIFPPKPKDTLEISRTPEVTCLVVDLGPDDSDVQITWFVDNTQVYTAKTSPREEQFNSTYRVVSVLPILHQDWLKGKEFKCKVNSKSLPSPIERTISKAKGQPHEPQVYVLPPAQEELSRNKVSVTCLIKSFHPPDIAVEWEITGQPEPENNYRTTPPQLDSDGTYFVYSKLSVDRSHWQRGNTYTCSVSHEALHSHHTQKSLTQSPGK"}, "B2": {"name": "feline IgG1a S252V (antibody, part only; not given: Variable domains, not shown: another chain or arm of the molecule)", "constant": "ASTTAPSVFPLAPSCGTTSGATVALACLVLGYFPEPVTVSWNSGALTSGVHTFPAVLQASGLYSLSSMVTVPSSRWLSDTFTCNVAHPPSNTKVDKTVRKTDHPPGPKPCDCPKCPPPEMLGGPSIFIFPPKPKDTLVISRTPEVTCLVVDLGPDDSDVQITWFVDNTQVYTAKTSPREEQFNSTYRVVSVLPILHQDWLKGKEFKCKVNSKSLPSPIERTISKAKGQPHEPQVYVLPPAQEELSRNKVSVTCLIKSFHPPDIAVEWEITGQPEPENNYRTTPPQLDSDGTYFVYSKLSVDRSHWQRGNTYTCSVSHEALHSHHTQKSLTQSPGK"}, "B3": {"name": "feline IgG1a S434I (antibody, part only; not given: Variable domains, not shown: another chain or arm of the molecule)", "constant": "ASTTAPSVFPLAPSCGTTSGATVALACLVLGYFPEPVTVSWNSGALTSGVHTFPAVLQASGLYSLSSMVTVPSSRWLSDTFTCNVAHPPSNTKVDKTVRKTDHPPGPKPCDCPKCPPPEMLGGPSIFIFPPKPKDTLSISRTPEVTCLVVDLGPDDSDVQITWFVDNTQVYTAKTSPREEQFNSTYRVVSVLPILHQDWLKGKEFKCKVNSKSLPSPIERTISKAKGQPHEPQVYVLPPAQEELSRNKVSVTCLIKSFHPPDIAVEWEITGQPEPENNYRTTPPQLDSDGTYFVYSKLSVDRSHWQRGNTYTCSVSHEALHIHHTQKSLTQSPGK"}, "B4": {"name": "feline IgG1a S252L (antibody, part only; not given: Variable domains, not shown: another chain or arm of the molecule)", "constant": "ASTTAPSVFPLAPSCGTTSGATVALACLVLGYFPEPVTVSWNSGALTSGVHTFPAVLQASGLYSLSSMVTVPSSRWLSDTFTCNVAHPPSNTKVDKTVRKTDHPPGPKPCDCPKCPPPEMLGGPSIFIFPPKPKDTLLISRTPEVTCLVVDLGPDDSDVQITWFVDNTQVYTAKTSPREEQFNSTYRVVSVLPILHQDWLKGKEFKCKVNSKSLPSPIERTISKAKGQPHEPQVYVLPPAQEELSRNKVSVTCLIKSFHPPDIAVEWEITGQPEPENNYRTTPPQLDSDGTYFVYSKLSVDRSHWQRGNTYTCSVSHEALHSHHTQKSLTQSPGK"}, "B5": {"name": "feline IgG1a S252P (antibody, part only; not given: Variable domains, not shown: another chain or arm of the molecule)", "constant": "ASTTAPSVFPLAPSCGTTSGATVALACLVLGYFPEPVTVSWNSGALTSGVHTFPAVLQASGLYSLSSMVTVPSSRWLSDTFTCNVAHPPSNTKVDKTVRKTDHPPGPKPCDCPKCPPPEMLGGPSIFIFPPKPKDTLPISRTPEVTCLVVDLGPDDSDVQITWFVDNTQVYTAKTSPREEQFNSTYRVVSVLPILHQDWLKGKEFKCKVNSKSLPSPIERTISKAKGQPHEPQVYVLPPAQEELSRNKVSVTCLIKSFHPPDIAVEWEITGQPEPENNYRTTPPQLDSDGTYFVYSKLSVDRSHWQRGNTYTCSVSHEALHSHHTQKSLTQSPGK"}, "B6": {"name": "feline IgG1a S252I (antibody, part only; not given: Variable domains, not shown: another chain or arm of the molecule)", "constant": "ASTTAPSVFPLAPSCGTTSGATVALACLVLGYFPEPVTVSWNSGALTSGVHTFPAVLQASGLYSLSSMVTVPSSRWLSDTFTCNVAHPPSNTKVDKTVRKTDHPPGPKPCDCPKCPPPEMLGGPSIFIFPPKPKDTLIISRTPEVTCLVVDLGPDDSDVQITWFVDNTQVYTAKTSPREEQFNSTYRVVSVLPILHQDWLKGKEFKCKVNSKSLPSPIERTISKAKGQPHEPQVYVLPPAQEELSRNKVSVTCLIKSFHPPDIAVEWEITGQPEPENNYRTTPPQLDSDGTYFVYSKLSVDRSHWQRGNTYTCSVSHEALHSHHTQKSLTQSPGK"}, "B7": {"name": "feline IgG1a S254D (antibody, part only; not given: Variable domains, not shown: another chain or arm of the molecule)", "constant": "ASTTAPSVFPLAPSCGTTSGATVALACLVLGYFPEPVTVSWNSGALTSGVHTFPAVLQASGLYSLSSMVTVPSSRWLSDTFTCNVAHPPSNTKVDKTVRKTDHPPGPKPCDCPKCPPPEMLGGPSIFIFPPKPKDTLSIDRTPEVTCLVVDLGPDDSDVQITWFVDNTQVYTAKTSPREEQFNSTYRVVSVLPILHQDWLKGKEFKCKVNSKSLPSPIERTISKAKGQPHEPQVYVLPPAQEELSRNKVSVTCLIKSFHPPDIAVEWEITGQPEPENNYRTTPPQLDSDGTYFVYSKLSVDRSHWQRGNTYTCSVSHEALHSHHTQKSLTQSPGK"}, "B8": {"name": "feline IgG1a S252K (antibody, part only; not given: variable domains and light chain, not shown: another chain or arm of the molecule)", "constant": "ASTTAPSVFPLAPSCGTTSGATVALACLVLGYFPEPVTVSWNSGALTSGVHTFPAVLQASGLYSLSSMVTVPSSRWLSDTFTCNVAHPPSNTKVDKTVRKTDHPPGPKPCDCPKCPPPEMLGGPSIFIFPPKPKDTLKISRTPEVTCLVVDLGPDDSDVQITWFVDNTQVYTAKTSPREEQFNSTYRVVSVLPILHQDWLKGKEFKCKVNSKSLPSPIERTISKAKGQPHEPQVYVLPPAQEELSRNKVSVTCLIKSFHPPDIAVEWEITGQPEPENNYRTTPPQLDSDGTYFVYSKLSVDRSHWQRGNTYTCSVSHEALHSHHTQKSLTQSPGK"}, "B9": {"name": "feline IgG1a S252Q (antibody, part only; not given: Variable domains, not shown: another chain or arm of the molecule)", "constant": "ASTTAPSVFPLAPSCGTTSGATVALACLVLGYFPEPVTVSWNSGALTSGVHTFPAVLQASGLYSLSSMVTVPSSRWLSDTFTCNVAHPPSNTKVDKTVRKTDHPPGPKPCDCPKCPPPEMLGGPSIFIFPPKPKDTLQISRTPEVTCLVVDLGPDDSDVQITWFVDNTQVYTAKTSPREEQFNSTYRVVSVLPILHQDWLKGKEFKCKVNSKSLPSPIERTISKAKGQPHEPQVYVLPPAQEELSRNKVSVTCLIKSFHPPDIAVEWEITGQPEPENNYRTTPPQLDSDGTYFVYSKLSVDRSHWQRGNTYTCSVSHEALHSHHTQKSLTQSPGK"}, "B10": {"name": "feline IgG1a S434H (antibody, part only; not given: variable domains and light chain, not shown: another chain or arm of the molecule; small tags and cut ends)", "constant": "ASTTAPSVFPLAPSCGTTSGATVALACLVLGYFPEPVTVSWNSGALTSGVHTFPAVLQASGLYSLSSMVTVPSSRWLSDTFTCNVAHPPSNTKVDKTVRKTDHPPGPKPCDCPKCPPPEMLGGPSIFIFPPKPKDTLSISRTPEVTCLVVDLGPDDSDVQITWFVDNTQVYTAKTSPREEQFNSTYRVVSVLPILHQDWLKGKEFKCKVNSKSLPSPIERTISKAKGQPHEPQVYVLPPAQEELSRNKVSVTCLIKSFHPPDIAVEWEITGQPEPENNYRTTPPQLDSDGTYFVYSKLSVDRSHWQRGNTYTCSVSHEALHHHHTQKSLTQSPGK"}, "B11": {"name": "feline IgG1a S252T (antibody, part only; not given: Variable domains, not shown: another chain or arm of the molecule)", "constant": "ASTTAPSVFPLAPSCGTTSGATVALACLVLGYFPEPVTVSWNSGALTSGVHTFPAVLQASGLYSLSSMVTVPSSRWLSDTFTCNVAHPPSNTKVDKTVRKTDHPPGPKPCDCPKCPPPEMLGGPSIFIFPPKPKDTLTISRTPEVTCLVVDLGPDDSDVQITWFVDNTQVYTAKTSPREEQFNSTYRVVSVLPILHQDWLKGKEFKCKVNSKSLPSPIERTISKAKGQPHEPQVYVLPPAQEELSRNKVSVTCLIKSFHPPDIAVEWEITGQPEPENNYRTTPPQLDSDGTYFVYSKLSVDRSHWQRGNTYTCSVSHEALHSHHTQKSLTQSPGK"}, "B12": {"name": "feline IgG1a S252N (antibody, part only; not given: variable domains, not shown: another chain or arm of the molecule)", "constant": "ASTTAPSVFPLAPSCGTTSGATVALACLVLGYFPEPVTVSWNSGALTSGVHTFPAVLQASGLYSLSSMVTVPSSRWLSDTFTCNVAHPPSNTKVDKTVRKTDHPPGPKPCDCPKCPPPEMLGGPSIFIFPPKPKDTLNISRTPEVTCLVVDLGPDDSDVQITWFVDNTQVYTAKTSPREEQFNSTYRVVSVLPILHQDWLKGKEFKCKVNSKSLPSPIERTISKAKGQPHEPQVYVLPPAQEELSRNKVSVTCLIKSFHPPDIAVEWEITGQPEPENNYRTTPPQLDSDGTYFVYSKLSVDRSHWQRGNTYTCSVSHEALHSHHTQKSLTQSPGK"}, "B13": {"name": "feline IgG1a S254F (antibody, part only; not given: Variable domains, not shown: another chain or arm of the molecule)", "constant": "ASTTAPSVFPLAPSCGTTSGATVALACLVLGYFPEPVTVSWNSGALTSGVHTFPAVLQASGLYSLSSMVTVPSSRWLSDTFTCNVAHPPSNTKVDKTVRKTDHPPGPKPCDCPKCPPPEMLGGPSIFIFPPKPKDTLSIFRTPEVTCLVVDLGPDDSDVQITWFVDNTQVYTAKTSPREEQFNSTYRVVSVLPILHQDWLKGKEFKCKVNSKSLPSPIERTISKAKGQPHEPQVYVLPPAQEELSRNKVSVTCLIKSFHPPDIAVEWEITGQPEPENNYRTTPPQLDSDGTYFVYSKLSVDRSHWQRGNTYTCSVSHEALHSHHTQKSLTQSPGK"}, "B14": {"name": "feline IgG1a S254E (antibody, part only; not given: Variable domains, not shown: another chain or arm of the molecule)", "constant": "ASTTAPSVFPLAPSCGTTSGATVALACLVLGYFPEPVTVSWNSGALTSGVHTFPAVLQASGLYSLSSMVTVPSSRWLSDTFTCNVAHPPSNTKVDKTVRKTDHPPGPKPCDCPKCPPPEMLGGPSIFIFPPKPKDTLSIERTPEVTCLVVDLGPDDSDVQITWFVDNTQVYTAKTSPREEQFNSTYRVVSVLPILHQDWLKGKEFKCKVNSKSLPSPIERTISKAKGQPHEPQVYVLPPAQEELSRNKVSVTCLIKSFHPPDIAVEWEITGQPEPENNYRTTPPQLDSDGTYFVYSKLSVDRSHWQRGNTYTCSVSHEALHSHHTQKSLTQSPGK"}, "B15": {"name": "feline IgG1a S252G (antibody, part only; not given: Variable domains, not shown: another chain or arm of the molecule)", "constant": "ASTTAPSVFPLAPSCGTTSGATVALACLVLGYFPEPVTVSWNSGALTSGVHTFPAVLQASGLYSLSSMVTVPSSRWLSDTFTCNVAHPPSNTKVDKTVRKTDHPPGPKPCDCPKCPPPEMLGGPSIFIFPPKPKDTLGISRTPEVTCLVVDLGPDDSDVQITWFVDNTQVYTAKTSPREEQFNSTYRVVSVLPILHQDWLKGKEFKCKVNSKSLPSPIERTISKAKGQPHEPQVYVLPPAQEELSRNKVSVTCLIKSFHPPDIAVEWEITGQPEPENNYRTTPPQLDSDGTYFVYSKLSVDRSHWQRGNTYTCSVSHEALHSHHTQKSLTQSPGK"}, "B16": {"name": "feline IgG1a S254A (antibody, part only; not given: Variable domains, not shown: another chain or arm of the molecule)", "constant": "ASTTAPSVFPLAPSCGTTSGATVALACLVLGYFPEPVTVSWNSGALTSGVHTFPAVLQASGLYSLSSMVTVPSSRWLSDTFTCNVAHPPSNTKVDKTVRKTDHPPGPKPCDCPKCPPPEMLGGPSIFIFPPKPKDTLSIARTPEVTCLVVDLGPDDSDVQITWFVDNTQVYTAKTSPREEQFNSTYRVVSVLPILHQDWLKGKEFKCKVNSKSLPSPIERTISKAKGQPHEPQVYVLPPAQEELSRNKVSVTCLIKSFHPPDIAVEWEITGQPEPENNYRTTPPQLDSDGTYFVYSKLSVDRSHWQRGNTYTCSVSHEALHSHHTQKSLTQSPGK"}}}
{"target": "feline FcRn complex (FcRn-α subunit and β-microglobulin), biotin labeled (feline)", "assay": "SPR, pH 6", "units": {"Kd": "nM"}}
{"binder": "B1", "Kd": 163}
{"binder": "B2", "Kd": 4470}
{"binder": "B3", "Kd": 14.4}
{"binder": "B4", "Kd": 70.7}
{"binder": "B5", "Kd": 7030}
{"binder": "B6", "Kd": 156}
{"binder": "B7", "Kd": 474}
{"binder": "B8", "Kd": 53.7}
{"binder": "B9", "Kd": 192}
{"binder": "B10", "Kd": 1.02}
{"binder": "B11", "Kd": 1190}
{"binder": "B12", "Kd": 400}
{"binder": "B13", "Kd": 568}
{"binder": "B14", "Kd": 0.711}
{"binder": "B15", "Kd": 49.8}
{"binder": "B16", "Kd": 53}
